In US20220273789A1:

Each substance was assayed against human IgG (human) (assay: BLI (Octet), gEgI on Ni-NTA sensor, hIgG in solution).
“HSV2-gE_P317K V340M_gI (from UniProt P89475 21-416; P06764 21-256) (receptor)” gave a Kd of 297 nM, a Response of 0.238 nm and a koff of 0.00199 s⁻¹. It also gave a kon of 6690 M⁻¹ s⁻¹. With “HSV2-gE_P317F S338H_gI (from UniProt P89475 21-416; P06764 21-256) (receptor)” the Kd was 339 nM, the Response was 0.182 nm and the koff was 0.00167 s⁻¹. The kon was 4910 M⁻¹ s⁻¹. For “HSV2-gE_P317K V340R_gI (from UniProt P89475 21-416; P06764 21-256) (receptor)”, the Kd was 241 nM, the Response was 0.508 nm and the koff was 0.00163 s⁻¹. For the same substance, the kon was 6740 M⁻¹ s⁻¹. “HSV2-gE_R314L V340M_gI (from UniProt P89475 21-416; P06764 21-256) (receptor)” gave a Kd of 452 nM, a Response of 0.427 nm and a koff of 0.00456 s⁻¹. The kon was 10100 M⁻¹ s⁻¹. For “HSV2-gE_P318I S338L_gI (from UniProt P89475 21-416; P06764 21-256) (receptor)”, the Kd was 152 nM, the Response was 0.411 nm and the koff was 0.00124 s⁻¹. The kon was 8130 M⁻¹ s⁻¹. Work on “HSV2-gE_R314G F322I_gI (from UniProt P89475 21-416; P06764 21-256) (receptor)” yielded a Kd of 272 nM, a Response of 0.291 nm and a koff of 0.00262 s⁻¹. The kon was 9620 M⁻¹ s⁻¹. For “HSV2-gE_R314L F322I_gI (from UniProt P89475 21-416; P06764 21-256) (receptor)”, the Kd was 274 nM, the Response was 0.433 nm and the koff was 0.00277 s⁻¹. For the same substance, the kon was 10100 M⁻¹ s⁻¹. Substance “HSV2-gE_R314L P318I_gI (from UniProt P89475 21-416; P06764 21-256) (receptor)” has a Kd of 261 nM, a Response of 0.294 nm and a koff of 0.00198 s⁻¹. For the same substance, the kon was 7580 M⁻¹ s⁻¹.

Each substance was assayed against human IgG (human) (assay: BLI Octet, construct on Ni-NTA sensor, hIgG in solution).
“HSV2-gE_P317F_gI (from UniProt P89475 21-416; P06764 21-256) (receptor)” gave a Kd of 8770 nM, a Response (nm) of 0.143 nm and a koff of 0.00166 s⁻¹. The kon was 189 M⁻¹ s⁻¹. “HSV2-gE_H245Q_gI (from UniProt P89475 21-416; P06764 21-256) (receptor)” gave a Kd of 320 nM, a Response (nm) of 0.896 nm and a koff of 0.0048 s⁻¹. The kon was 15000 M⁻¹ s⁻¹. “HSV2-gE_A248G F322P_gI (from UniProt P89475 21-416; P06764 21-256) (receptor)” was tested, and the Kd was 320 nM, the Response (nm) was 0.497 nm and the koff was 0.00367 s⁻¹. For the same substance, the kon was 11500 M⁻¹ s⁻¹. In the case of “HSV2-gE_R314Q_gI (from UniProt P89475 21-416; P06764 21-256) (receptor)”, the Kd is reported as 498 nM, the Response (nm) is reported as 0.568 nm and the koff is reported as 0.00535 s⁻¹. The kon was 10800 M⁻¹ s⁻¹. “HSV2-gE_A248G V340R_gI (from UniProt P89475 21-416; P06764 21-256) (receptor)” was tested, and the Kd was 8960 nM, the Response (nm) was 0.303 nm and the koff was 0.00461 s⁻¹. It also gave a kon of 514 M⁻¹ s⁻¹. In the case of “HSV2-gE_A248K V340R_gI (from UniProt P89475 21-416; P06764 21-256) (receptor)”, the Kd is reported as less than 0.001 nM, the Response (nm) is reported as 0.0449 nm and the koff is reported as less than 1e-07 s⁻¹. The kon was 3040 M⁻¹ s⁻¹. Work on “HSV2-gE_A248G F322I_gI (from UniProt P89475 21-416; P06764 21-256) (receptor)” yielded a Kd of 465 nM, a Response (nm) of 0.373 nm and a koff of 0.00439 s⁻¹. It also gave a kon of 9450 M⁻¹ s⁻¹. In the case of “HSV2-gE_P318Q_gI (from UniProt P89475 21-416; P06764 21-256) (receptor)”, the Kd is reported as 443 nM, the Response (nm) is reported as 0.152 nm and the koff is reported as 0.00139 s⁻¹. It also gave a kon of 3150 M⁻¹ s⁻¹. With “HSV2-gE_R320G_gI (from UniProt P89475 21-416; P06764 21-256) (receptor)” the Kd was 1180 nM, the Response (nm) was 0.322 nm and the koff was 0.00462 s⁻¹. For the same substance, the kon was 3920 M⁻¹ s⁻¹. “HSV2-gE_V340R_gI (from UniProt P89475 21-416; P06764 21-256) (receptor)” was tested, and the Kd was less than 0.001 nM, the Response (nm) was 0.201 nm and the koff was less than 1e-07 s⁻¹. The kon was 6650 M⁻¹ s⁻¹. Substance “HSV2-gE_S338T_gI (from UniProt P89475 21-416; P06764 21-256) (receptor)” has a Kd of 186 nM, a Response (nm) of 0.785 nm and a koff of 0.00254 s⁻¹. It also gave a kon of 13600 M⁻¹ s⁻¹. With “HSV2-gE_S338E_gI (from UniProt P89475 21-416; P06764 21-256) (receptor)” the Kd was 348 nM, the Response (nm) was 0.616 nm and the koff was 0.0043 s⁻¹. The kon was 12300 M⁻¹ s⁻¹. Substance “HSV2-gE_R314N_gI (from UniProt P89475 21-416; P06764 21-256) (receptor)” has a Kd of 1310 nM, a Response (nm) of 0.301 nm and a koff of 0.00748 s⁻¹. The kon was 5700 M⁻¹ s⁻¹. Work on “HSV2-gE_A248K V340M_gI (from UniProt P89475 21-416; P06764 21-256) (receptor)” yielded a Kd of less than 0.001 nM, a Response (nm) of 0.0007 nm and a koff of less than 1e-07 s⁻¹. For the same substance, the kon was 237 M⁻¹ s⁻¹. For “HSV2-gE_R314F_gI (from UniProt P89475 21-416; P06764 21-256) (receptor)”, the Kd was 884 nM, the Response (nm) was 0.325 nm and the koff was 0.0048 s⁻¹. It also gave a kon of 5430 M⁻¹ s⁻¹. Work on “HSV2-gE_R314E_gI (from UniProt P89475 21-416; P06764 21-256) (receptor)” yielded a Kd of 1300 nM, a Response (nm) of 0.306 nm and a koff of 0.0058 s⁻¹. The kon was 4470 M⁻¹ s⁻¹. With “HSV2-gE_R320H_gI (from UniProt P89475 21-416; P06764 21-256) (receptor)” the Kd was 4750 nM, the Response (nm) was 0.247 nm and the koff was 0.00421 s⁻¹. For the same substance, the kon was 886 M⁻¹ s⁻¹. With “HSV2-gE_P318Y_gI (from UniProt P89475 21-416; P06764 21-256) (receptor)” the Kd was less than 0.001 nM, the Response (nm) was 0.0215 nm and the koff was less than 1e-07 s⁻¹. It also gave a kon of 3480 M⁻¹ s⁻¹. In the case of “HSV2-gE_P319L_gI (from UniProt P89475 21-416; P06764 21-256) (receptor)”, the Kd is reported as 1390 nM, the Response (nm) is reported as 0.328 nm and the koff is reported as 0.00444 s⁻¹. The kon was 3190 M⁻¹ s⁻¹. For “HSV2-gE_A248K F322P_gI (from UniProt P89475 21-416; P06764 21-256) (receptor)”, the Kd was 498 nM, the Response (nm) was 0.427 nm and the koff was 0.00461 s⁻¹. For the same substance, the kon was 9250 M⁻¹ s⁻¹. “HSV2-gE_R320T_gI (from UniProt P89475 21-416; P06764 21-256) (receptor)” showed a Kd of 606 nM, a Response (nm) of 0.37 nm and a koff of 0.0042 s⁻¹. The kon was 6940 M⁻¹ s⁻¹. “HSV2-gE_R320Q_gI (from UniProt P89475 21-416; P06764 21-256) (receptor)” gave a Kd of 902 nM, a Response (nm) of 0.351 nm and a koff of 0.00539 s⁻¹. The kon was 5980 M⁻¹ s⁻¹. For “HSV2-gE_F322I_gI (from UniProt P89475 21-416; P06764 21-256) (receptor)”, the Kd was 302 nM, the Response (nm) was 0.639 nm and the koff was 0.00363 s⁻¹. For the same substance, the kon was 12000 M⁻¹ s⁻¹. In the case of “HSV2-gE_R320I_gI (from UniProt P89475 21-416; P06764 21-256) (receptor)”, the Kd is reported as 406 nM, the Response (nm) is reported as 0.622 nm and the koff is reported as 0.00438 s⁻¹. For the same substance, the kon was 10800 M⁻¹ s⁻¹. “HSV2-gE_P318D_gI (from UniProt P89475 21-416; P06764 21-256) (receptor)” was tested, and the Kd was less than 0.001 nM, the Response (nm) was 0.0995 nm and the koff was less than 1e-07 s⁻¹. It also gave a kon of 5180 M⁻¹ s⁻¹. “HSV2-gE_P317N_gI (from UniProt P89475 21-416; P06764 21-256) (receptor)” showed a Kd of 500 nM, a Response (nm) of 0.381 nm and a koff of 0.00459 s⁻¹. The kon was 9180 M⁻¹ s⁻¹. For “HSV2-gE_V340Q_gI (from UniProt P89475 21-416; P06764 21-256) (receptor)”, the Kd was 239 nM, the Response (nm) was 0.32 nm and the koff was 0.00218 s⁻¹. For the same substance, the kon was 9090 M⁻¹ s⁻¹. Work on “HSV2-gE_R314M_gI (from UniProt P89475 21-416; P06764 21-256) (receptor)” yielded a Kd of 608 nM, a Response (nm) of 0.519 nm and a koff of 0.00592 s⁻¹. The kon was 9730 M⁻¹ s⁻¹. “HSV2-gE_A246W R320D_gI (from UniProt P89475 21-416; P06764 21-256) (receptor)” gave a Kd of less than 0.001 nM, a Response (nm) of 0.0712 nm and a koff of less than 1e-07 s⁻¹. For the same substance, the kon was 2260 M⁻¹ s⁻¹. “HSV2-gE_V340P_gI (from UniProt P89475 21-416; P06764 21-256) (receptor)” was tested, and the Kd was 321 nM, the Response (nm) was 0.566 nm and the koff was 0.00465 s⁻¹. For the same substance, the kon was 14500 M⁻¹ s⁻¹. In the case of “HSV2-gE_A248K F322I_gI (from UniProt P89475 21-416; P06764 21-256) (receptor)”, the Kd is reported as 870 nM, the Response (nm) is reported as 0.321 nm and the koff is reported as 0.00525 s⁻¹. The kon was 6040 M⁻¹ s⁻¹. With “HSV2-gE_R314V_gI (from UniProt P89475 21-416; P06764 21-256) (receptor)” the Kd was 538 nM, the Response (nm) was 0.408 nm and the koff was 0.00487 s⁻¹. It also gave a kon of 9070 M⁻¹ s⁻¹. Work on “HSV2-gE_A248G V340M_gI (from UniProt P89475 21-416; P06764 21-256) (receptor)” yielded a Kd of 571 nM, a Response (nm) of 0.452 nm and a koff of 0.0052 s⁻¹. The kon was 9110 M⁻¹ s⁻¹. “HSV2-gE_R314G_gI (from UniProt P89475 21-416; P06764 21-256) (receptor)” gave a Kd of 572 nM, a Response (nm) of 0.478 nm and a koff of 0.0052 s⁻¹. The kon was 9080 M⁻¹ s⁻¹. With “HSV2-gE_R314L_gI (from UniProt P89475 21-416; P06764 21-256) (receptor)” the Kd was 702 nM, the Response (nm) was 0.442 nm and the koff was 0.00521 s⁻¹. For the same substance, the kon was 7430 M⁻¹ s⁻¹. For “HSV2-gE_F322K_gI (from UniProt P89475 21-416; P06764 21-256) (receptor)”, the Kd was 278 nM, the Response (nm) was 0.599 nm and the koff was 0.00301 s⁻¹. It also gave a kon of 10800 M⁻¹ s⁻¹. Work on “HSV2-gE_H245G_gI (from UniProt P89475 21-416; P06764 21-256) (receptor)” yielded a Kd of 1630 nM, a Response (nm) of 0.424 nm and a koff of 0.00669 s⁻¹. For the same substance, the kon was 4110 M⁻¹ s⁻¹. In the case of “HSV2-gE_R320M_gI (from UniProt P89475 21-416; P06764 21-256) (receptor)”, the Kd is reported as 336 nM, the Response (nm) is reported as 0.722 nm and the koff is reported as 0.00462 s⁻¹. The kon was 13700 M⁻¹ s⁻¹. “HSV2-gE_P318S_gI (from UniProt P89475 21-416; P06764 21-256) (receptor)” gave a Kd of 9900 nM, a Response (nm) of 0.124 nm and a koff of 0.00504 s⁻¹. The kon was 509 M⁻¹ s⁻¹. For “HSV2-gE_V340A_gI (from UniProt P89475 21-416; P06764 21-256) (receptor)”, the Kd was 474 nM, the Response (nm) was 0.356 nm and the koff was 0.00422 s⁻¹. It also gave a kon of 8910 M⁻¹ s⁻¹.
